From publication PMC3747585 come the findings set out here.

A word on the Kd: it is the equilibrium constant for the complex coming apart.

In assay [1] the target is NT-647-labeled human C7 (human) (UniProt P10643). As to the kind of experiment: MST.
In assay [2] the target is NT-647-labeled human C9 (human) (UniProt P02748). Put plainly: MST.
For assay [3], the target named is CspA (full-length CspA^26–251) from Borrelia burgdorferi (Borrelia burgdorferi). Put plainly: ELISA. On the technique in general: In an ELISA, binding on a coated surface is turned into a signal by an enzyme label.

Sequence of factor H (P08603 19-1231): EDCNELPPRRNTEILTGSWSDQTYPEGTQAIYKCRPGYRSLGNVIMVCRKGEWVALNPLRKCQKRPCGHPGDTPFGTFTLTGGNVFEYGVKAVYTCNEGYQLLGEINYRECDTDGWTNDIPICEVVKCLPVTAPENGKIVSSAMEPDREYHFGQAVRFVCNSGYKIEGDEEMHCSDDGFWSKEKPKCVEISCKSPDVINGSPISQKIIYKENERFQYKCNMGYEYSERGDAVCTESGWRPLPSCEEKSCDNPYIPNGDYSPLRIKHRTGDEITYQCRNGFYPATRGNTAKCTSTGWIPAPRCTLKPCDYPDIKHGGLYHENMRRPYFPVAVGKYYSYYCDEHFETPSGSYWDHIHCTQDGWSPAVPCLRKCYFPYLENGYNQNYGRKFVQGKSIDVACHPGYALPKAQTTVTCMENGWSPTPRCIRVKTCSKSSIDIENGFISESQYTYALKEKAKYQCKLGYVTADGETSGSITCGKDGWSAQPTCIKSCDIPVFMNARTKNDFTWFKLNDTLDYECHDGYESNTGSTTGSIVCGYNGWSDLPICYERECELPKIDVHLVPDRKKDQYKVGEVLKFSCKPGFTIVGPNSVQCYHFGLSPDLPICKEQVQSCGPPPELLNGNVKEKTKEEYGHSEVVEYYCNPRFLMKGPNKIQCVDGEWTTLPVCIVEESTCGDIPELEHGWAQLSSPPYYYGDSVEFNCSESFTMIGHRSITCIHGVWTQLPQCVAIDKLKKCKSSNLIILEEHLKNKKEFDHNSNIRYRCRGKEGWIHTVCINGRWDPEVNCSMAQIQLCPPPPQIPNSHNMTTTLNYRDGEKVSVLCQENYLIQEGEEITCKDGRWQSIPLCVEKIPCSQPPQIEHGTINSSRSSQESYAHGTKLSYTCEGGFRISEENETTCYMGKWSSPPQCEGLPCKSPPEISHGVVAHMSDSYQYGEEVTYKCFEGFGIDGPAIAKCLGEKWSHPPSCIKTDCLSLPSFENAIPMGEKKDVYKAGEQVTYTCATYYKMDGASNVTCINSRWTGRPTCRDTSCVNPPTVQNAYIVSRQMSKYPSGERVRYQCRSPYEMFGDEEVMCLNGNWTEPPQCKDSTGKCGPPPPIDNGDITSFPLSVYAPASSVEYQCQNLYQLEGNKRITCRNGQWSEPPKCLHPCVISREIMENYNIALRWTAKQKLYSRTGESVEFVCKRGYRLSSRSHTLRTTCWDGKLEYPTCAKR

Take “CspA (full-length CspA^26–251) from Borrelia burgdorferi (natural protein)”: the equilibrium dissociation constant (Kd) in assay [1] was found to be 5.1 µM; in assay [2] it was 3.4 µM.
In assay [3], “factor H (from UniProt P08603 19-1231) (natural protein)” registered a percent reduction of C7 binding to CspA by factor H at 5 µg/ml of 17% and a percent reduction of C9 binding to CspA by factor H at 5 µg/ml of 23%.
In assay [3], “human terminal complement component C7 (from UniProt P10643 23-843) (natural protein)” came in with a percent reduction of binding by NaCl at 0.15 M of 60% and a percent reduction of binding by heparin at 500 µg/ml of 42%.
Substance “human terminal complement component C9 (from UniProt P02748 22-559) (natural protein)” had a percent inhibition of binding by NaCl at 0.15 M in assay [3] of 35%.
